Assays:
Experiment in all cases: cell-based or functional assay
[1] = biological target: IL-2R on human cells (activated CD4 T cells, PBMC subsets, NK92) (human) (UniProt P14784); parameters: EC50 on MFI of STAT5-P, PD-1+ CD4 T cells: unit not given beside the values
[2] = biological target: IL-2R on human cells (activated CD4 T cells, PBMC subsets, NK92) (human) (UniProt P14784); parameters: AUC of STAT5-P on PD1+ T cells / AUC of STAT5-P on PD1-blocked T cells: unit not given beside the values
[3] = biological target: IL-2R on human cells (activated CD4 T cells, PBMC subsets, NK92) (human) (UniProt P14784)

Sequence of IL-2R on human cells (activated CD4 T cells, PBMC subsets, NK92) (human) (P14784 27-551, chain 1 of 2): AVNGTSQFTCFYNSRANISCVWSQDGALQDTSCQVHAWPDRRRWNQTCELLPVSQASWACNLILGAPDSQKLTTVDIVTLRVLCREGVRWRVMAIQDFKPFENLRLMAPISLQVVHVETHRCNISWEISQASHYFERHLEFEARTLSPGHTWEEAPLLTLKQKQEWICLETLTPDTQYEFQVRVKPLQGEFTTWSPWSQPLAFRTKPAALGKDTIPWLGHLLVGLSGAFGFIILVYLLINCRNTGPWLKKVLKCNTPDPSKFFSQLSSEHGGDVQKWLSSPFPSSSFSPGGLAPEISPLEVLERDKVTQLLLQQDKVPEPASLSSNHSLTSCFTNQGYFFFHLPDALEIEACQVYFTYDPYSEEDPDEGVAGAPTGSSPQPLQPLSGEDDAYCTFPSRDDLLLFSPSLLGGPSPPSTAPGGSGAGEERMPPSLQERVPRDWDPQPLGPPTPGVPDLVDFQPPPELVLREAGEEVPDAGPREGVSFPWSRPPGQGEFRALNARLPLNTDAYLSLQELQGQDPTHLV
Sequence of IL-2R on human cells (activated CD4 T cells, PBMC subsets, NK92) (human) (P31785 23-369, chain 2 of 2, further chain): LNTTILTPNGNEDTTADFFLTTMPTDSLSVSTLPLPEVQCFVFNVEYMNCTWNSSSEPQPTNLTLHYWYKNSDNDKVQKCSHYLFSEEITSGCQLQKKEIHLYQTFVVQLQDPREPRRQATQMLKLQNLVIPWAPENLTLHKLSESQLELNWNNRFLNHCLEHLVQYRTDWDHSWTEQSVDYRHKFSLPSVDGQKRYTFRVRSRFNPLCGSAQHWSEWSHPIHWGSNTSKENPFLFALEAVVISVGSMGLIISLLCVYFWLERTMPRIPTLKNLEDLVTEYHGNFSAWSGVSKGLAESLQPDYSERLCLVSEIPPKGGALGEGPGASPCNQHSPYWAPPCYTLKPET

EC50 on MFI of STAT5-P, PD-1+ CD4 T cells [1]: 8530 | Potency reduction versus PD1-IL2v (MFI) [1]: 12.6 fold | Potency reduction versus PD1-IL2v (frequency) [1]: 12.9 fold | AUC of STAT5-P on PD1+ T cells [2]: 144 | AUC of STAT5-P on PD1-blocked T cells [2]: 142 | Potency reduction vs PD1-IL2v [2]: 8.13 fold | Percentage of internalization (0.6 nM, activated CD4 T cells, 3 h at 37 C) [3]: 89.8% | Potency reduction vs PD1-IL2v on PD-1+ LAG-3+ T cells [3]: 107 fold
Substance: FAP-IL2v

From patent publication US20260083855A1
